According to patent publication US20240084027A1 (BEIJING MABWORKS, published 2024):
Like-named read-outs stand apart in the source and are kept apart here.

Key:
[1] = biological target: T1, human PD-L1 on HEK293A/human PD-L1 cells (human, UniProt Q9NZQ7 19-290); experiment: FACS on HEK293A/human PD-L1 cells
Description: (§1) The bispecific antibodies as prepared above were tested for their binding capability to cell surface human, monkey and mouse CD40 proteins by FACS, using the HEK293A cells prepared in Example 1 that stably expressed human, monkey or mouse CD40. Briefly, a 96-well plate was seeded with 10⁵ HEK293A cells in 50 μl PBS, and then added with 100 μl serially diluted anti-CD40 antibody 714VH2VL2 and the bispecific antibodies of the disclosure (starting concentration at 40 μg/ml). After incubation at 4° C. for 1 h, the plate was washed by PBST for 3 times. The plate was added with 1:500 diluted APC-goat anti-mouse IgG (Cat #:405308, BioLegen, USA), incubated at 4° for 1 h, washed with PBS for 3 times, and subjected to fluorescence measurement in a FACS machine (BD).
(§2) Following the protocols in Example 4 and Example 5, the bi- or multi-specific antibodies of the disclosure were tested for their binding capability to human PD-L1 and human CD40 proteins by FACS using the HEK293A cells prepared in Example 1 that stably expressed human PD-L1 or human CD40.

[2] = biological target: T1, human PD-L1 on HEK293A/human PD-L1 cells; experiment: FACS on HEK293A/human PD-L1 cells; remark: listed apart in the source
Description: as §1, §2

[3] = biological target: T1, human PD-L1 on HEK293A/human PD-L1 cells; experiment: FACS blocking assay on HEK293A/human PD-L1 cells; blocked ligand PD-1-Fc
Description: The bispecific antibodies were tested for their blocking activity on PD-1-PD-L1 binding by FACS using the HEK293A cells stably expressing human PD-L1 molecules as prepared in Example 1. Briefly, a 96-well plate was seeded with 10⁵ HEK293A/human PD-L1 cells in 100 μl cell culture medium, and then added with 50 μl serially diluted anti-PD-L1 antibody 56E5VH5VL4 or MBS307-3 molecules. After incubation at 4° C. for 1 h. the plate was washed with PBST for 3 times, added with 100 μl 200 μg/ml PD-1-Fc fusion proteins (Cat #:10377-10211, Sino Biological, CN), incubated at 4° C. for 1 h, washed with PBST for 3 times, and added with 1:500 diluted PE-goat anti-human IgG (Cat #:PAI-86078, Thermofisher, USA). After incubation at 4° C. for 1 h, the plate was washed with PBST for 3 times and measured for fluorescence using a FACS machine (BD).
Following the protocol of Example 7, the bi- or multi-specific antibodies were tested for their capability to block PD-1-PD-L1 binding by FACS, using the HEK293A cells prepared in Example 1 that stably expressed human PD-L1 molecules.

[4] = biological target: T2, human CD40 on HEK293A/human CD40 cells (human, UniProt P25942 21-277); experiment: FACS on HEK293A/human CD40 cells
T2 construct: also called HEK-Blue/CD40 cells
Description: as §1, §2

[5] = biological target: T3, human PD-L1-his protein (human, UniProt Q9NZQ7 19-238); experiment: SPR (BIAcore 8K), human PD-L1-his coupled to CM5 chip, antibody injected
T3 construct: extracellular domain; also called human PD-L1 (ECD)-his; human PD-L1 protein; not shown: his tag
T3 sequence (Q9NZQ7 19-238): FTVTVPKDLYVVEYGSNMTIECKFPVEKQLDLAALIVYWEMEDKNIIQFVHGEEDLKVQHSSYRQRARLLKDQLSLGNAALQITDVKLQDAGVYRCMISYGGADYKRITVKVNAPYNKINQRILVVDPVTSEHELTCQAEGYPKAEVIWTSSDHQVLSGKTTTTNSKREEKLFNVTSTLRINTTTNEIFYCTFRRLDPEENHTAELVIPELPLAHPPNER
Excerpt: (§3) Using BIAcore™ 8K instrument (GE Life Sciences, US), the binding affinity of the bi- or multi-specific antibodies to human CD40 and PD-L1 was quantitatively measured. Briefly, 100-200 response units (RU) of human CD40-his protein (Cat #:10774-1108H, Sino Biological, CN) or human PD-L1-his protein (Cat #:10084-H08H, Sino Biological, CN) were coupled to CM5 biosensor chips (Cat #:BR-1005-30, GE Life Sciences. USA). The un-reacted groups were then blocked with 1 M ethanolamine. Serially diluted antibodies at concentrations ranging from 0.3 μM to 10 μM were injected into the SPR running buffer (HBS-EP buffer, pH7.4, Cat #:BR-1006-69, GE Life Sciences, USA) at 30 μL/min. The binding affinity was calculated with the RUs of blank controls subtracted, and the association rate (kₐ) and dissociation rate (kd) were determined using the one-to-one Langmuir binding model (BIA Evaluation Software, GE Life Sciences, USA). The equilibrium dissociation constant KD was calculated as the kd/kₐ ratio.

[6] = biological target: T2, human CD40 on HEK293A/human CD40 cells; experiment: cell-based or functional assay
[7] = biological target: T2, human CD40 on HEK293A/human CD40 cells; experiment: FACS on HEK293A/human CD40 cells; remark: listed apart in the source
Description: as §1, §2

[8] = biological target: T2, human CD40 on HEK293A/human CD40 cells; experiment: cell-based or functional assay; remark: listed apart in the source
[9] = biological target: T4, human CD40-his protein (human, UniProt P25942 21-193); experiment: SPR (BIAcore 8K), human CD40-his coupled to CM5 chip, antibody injected
T4 construct: Bought protein; also called human CD40 protein; CD40 molecules; not shown: his tag
Excerpt: as §3

[10] = biological target: T2, human CD40 on HEK293A/human CD40 cells; experiment: FACS on HEK293A/human CD40 cells; remark: listed apart in the source
Description: as §1, §2

[11] = biological target: T1, human PD-L1 on HEK293A/human PD-L1 cells; experiment: FACS on HEK293A/human PD-L1 cells; remark: listed apart in the source
Description: as §1, §2

T1 sequence (Q9NZQ7 19-290 limits assumed): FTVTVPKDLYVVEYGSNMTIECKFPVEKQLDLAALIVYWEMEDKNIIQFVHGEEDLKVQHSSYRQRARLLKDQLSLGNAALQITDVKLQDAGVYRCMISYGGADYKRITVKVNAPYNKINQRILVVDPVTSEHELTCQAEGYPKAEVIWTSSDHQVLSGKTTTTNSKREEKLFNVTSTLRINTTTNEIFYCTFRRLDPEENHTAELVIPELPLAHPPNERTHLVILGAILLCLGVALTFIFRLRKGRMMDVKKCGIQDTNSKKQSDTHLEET

B1: anti-PD-L1 antibody 3C2VH6VL5 (antibody, V domains shown)
VH: QVQLVQSGAEVKKPGASVKVSCKASGYTFTDYHVNWVRQAPGQGLEWIGWIFPGSGRTFYTDKFKGRVTMTVDTSTSTVYMELSSLRSEDTAVYYCATDYGTSGYGLVYWGQGTTVTVSS
VL: DIQMTQSPSSLSASVGDRVTITCKASDRINNWLAWYQQKPGKAPKLLISGATSLETGVPSRFSGSGSGTDFTLTISSLQPEDIATYYCQQYWNIPFTFGQGTKVEIK
notes: also called 3C2VH46VL5 [sic]
For B1, the “EC50 (read off the curve)” value [1] was about 0.2 µg/mL, the “EC50 (read off the curve)” value [2] was about 0.1 µg/mL and the “IC50 (read off the curve)” value [3] was about 0.5 µg/mL.

B2: MBS307-10 (bispecific antibody, human IgG1, kappa, L234A L235A)
heavy 1: QVQLQESGPGLVKPSDTLSLTCAVSGYSITTNYYWNWIRQPPGKGLEWMGYIKYDGSNNYNPSLKNRITISVDTSKNQFSLKLSSVTAVDTAVYYCARLDYWGQGTLVTVSSASTKGPSVFPLAPSSKSTSGGTAALGCLVKDYFPEPVTVSWNSGALTSGVHTFPAVLQSSGLYSLSSVVTVPSSSLGTQTYICNVNHKPSNTKVDKKVEPKSCDKTHTCPPCPAPEAAGGPSVFLFPPKPKDTLMISRTPEVTCVVVDVSHEDPEVKFNWYVDGVEVHNAKTKPREEQYNSTYRVVSVLTVLHQDWLNGKEYKCKVSNKALPAPIEKTISKAKGQPREPQVYTLPPSREEMTKNQVSLWCLVKGFYPSDIAVEWESNGQPENNYKTTPPVLDSDGSFFLYSKLTVDKSRWQQGNVFSCSVMHEALHNHYTQKSLSLSPGK
heavy 2: QVQLQESGPGLVKPSDTLSLTCAVSGYSITTNYYWNWIRQPPGKGLEWMGYIKYDGSNNYNPSLKNRITISVDTSKNQFSLKLSSVTAVDTAVYYCARLDYWGQGTLVTVSSASTKGPSVFPLAPSSKSTSGGTAALGCLVKDYFPEPVTVSWNSGALTSGVHTFPAVLQSSGLYSLSSVVTVPSSSLGTQTYICNVNHKPSNTKVDKKVEPKSCDKTHTCPPCPAPEAAGGPSVFLFPPKPKDTLMISRTPEVTCVVVDVSHEDPEVKFNWYVDGVEVHNAKTKPREEQYNSTYRVVSVLTVLHQDWLNGKEYKCKVSNKALPAPIEKTISKAKGQPREPQVYTLPPSREEMTKNQVSLSCAVKGFYPSDIAVEWESNGQPENNYKTTPPVLDSDGSFFLVSKLTVDKSRWQQGNVFSCSVMHEALHNHYTQKSLSLSPGGGGGQVQLVQSGAEVKKPGASVKVSCKASGYTFTDYHVNWVRQAPGQGLEWIGWIFPGSGRTFYTDKFKGRVTMTVDTSTSTVYMELSSLRSEDTAVYYCATDYGTSGYGLVYWGQGTTVTVSSGGGGSGGGGSGGGGSGGGGSDIQMTQSPSSLSASVGDRVTITCKASDRINNWLAWYQQKPGKAPKLLISGATSLETGVPSRFSGSGSGTDFTLTISSLQPEDEATYYCQQYWNIPFTFGQGTKLTAK
light: DVVLTQSPLSLPVTLGQPASISCRSSQSLENSNGNTFLNWFQQRPGQSPRLLIYKVSNRFSGVPDRFSGSGSGTDFTLKISRVEAEDVGVYYCLQVTHVPFTFGQGTKLEIKRTVAAPSVFIFPPSDEQLKSGTASVVCLLNNFYPREAKVQWKVDNALQSGNSQESVTEQDSKDSTYSLSSTLTLSKADYEKHKVYACEVTHQGLSSPVTKSFNRGEC
notes: Asymmetric: knob chain without scFv, hole chain with the 3C2VH6VL5 scFv; also called MBS307-10-1 + MBS307-10-2
With B2 the “EC50 (read off the curve)” value [4] was about 0.02 µg/mL, the Kd [5] was 17.7 nM and the “EC50 (read off the curve); HEK-Blue/CD40 reporter, OD630, plate coated with human PD-L1-his” value [6] was about 0.05 µg/mL. For the same binder, the “EC50 (read off the curve)” value [7] was about 0.04 µg/mL, the “EC50 (read off the curve); HEK-Blue/CD40 reporter, OD630, plate coated with human PD-L1-his” value [8] was about 0.03 µg/mL and the Kd [9] was 2.72 nM. The “EC50 (read off the curve)” value [10] was about 0.07 µg/mL.

B3: MBS307-8 (bispecific antibody, human IgG1, kappa, L234A L235A)
heavy 1: QVQLQESGPGLVKPSDTLSLTCAVSGYSITTNYYWNWIRQPPGKGLEWMGYIKYDGSNNYNPSLKNRITISVDTSKNQFSLKLSSVTAVDTAVYYCARLDYWGQGTLVTVSSASTKGPSVFPLAPSSKSTSGGTAALGCLVKDYFPEPVTVSWNSGALTSGVHTFPAVLQSSGLYSLSSVVTVPSSSLGTQTYICNVNHKPSNTKVDKKVEPKSCDKTHTCPPCPAPEAAGGPSVFLFPPKPKDTLMISRTPEVTCVVVDVSHEDPEVKFNWYVDGVEVHNAKTKPREEQYNSTYRVVSVLTVLHQDWLNGKEYKCKVSNKALPAPIEKTISKAKGQPREPQVYTLPPSREEMTKNQVSLWCLVKGFYPSDIAVEWESNGQPENNYKTTPPVLDSDGSFFLYSKLTVDKSRWQQGNVFSCSVMHEALHNHYTQKSLSLSPGSGGGGSGGGGSQVQLVQSGAEVKKPGASVKVSCKASGYTFTDYHVNWVRQAPGQGLEWIGWIFPGSGRTFYTDKFKGRVTMTVDTSTSTVYMELSSLRSEDTAVYYCATDYGTSGYGLVYWGQGTTVTVSSGGGGSGGGGSGGGGSGGGGSDIQMTQSPSSLSASVGDRVTITCKASDRINNWLAWYQQKPGKAPKLLISGATSLETGVPSRFSGSGSGTDFTLTISSLQPEDEATYYCQQYWNIPFTFGQGTKLTAK
heavy 2: QVQLQESGPGLVKPSDTLSLTCAVSGYSITTNYYWNWIRQPPGKGLEWMGYIKYDGSNNYNPSLKNRITISVDTSKNQFSLKLSSVTAVDTAVYYCARLDYWGQGTLVTVSSASTKGPSVFPLAPSSKSTSGGTAALGCLVKDYFPEPVTVSWNSGALTSGVHTFPAVLQSSGLYSLSSVVTVPSSSLGTQTYICNVNHKPSNTKVDKKVEPKSCDKTHTCPPCPAPEAAGGPSVFLFPPKPKDTLMISRTPEVTCVVVDVSHEDPEVKFNWYVDGVEVHNAKTKPREEQYNSTYRVVSVLTVLHQDWLNGKEYKCKVSNKALPAPIEKTISKAKGQPREPQVYTLPPSREEMTKNQVSLSCAVKGFYPSDIAVEWESNGQPENNYKTTPPVLDSDGSFFLVSKLTVDKSRWQQGNVFSCSVMHEALHNHYTQKSLSLSPGSGGGGSGGGGSQVQLQESGPGLVKPSQTLSLTCTVSGGSITSDYWNWIRQHPGNKLEYMGYISYTGSTYYNPSLKSRISITRDTSKNQFSLKLSSVTTADTAVYYCARYRDWDVRAMDYWGQGTTVTVSSGGGGSGGGGSGGGGSGGGGSDIVMTQSPDSLAVSLGEKVTMNCKSSQSLLISGNQKNFLTWYQQKPGQPPKLLIYWASTRESGVPDRFSGSGSGTDFTLTISSLQAEDEAVYYCQNDFGFPFTFGQGTKLTAK
light: B2 light
notes: Asymmetric: knob chain with the 3C2VH6VL5 scFv, hole chain with the 56E5VH5VL4 scFv, linker 3 (long linker); also called MBS307-8-1 + MBS307-8-2
For B3, the “EC50 (read off the curve)” value [4] was about 0.04 µg/mL and the “EC50 (read off the curve)” value [11] was about 0.5 µg/mL.
